Measured values from the nanobody polyreactivity screen of Harvey et al. (2022).

Assay: yeast display, Sf9 membrane polyspecificity reagent, FACS + sequencing; frameworks hold sequencing errors
How it was run: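 Genes from sorted yeast were amplified by colony PCR, read by MiSeq 2 × 250 sequencing and filtered on CDR length. These cells carried a synthetic nanobody library in Saccharomyces cerevisiae BJ5465 and were sorted by FACS into low and high (top ~1%) gates on anti-HA and streptavidin fluorescence. Polyreactivity is labelled according to the gate of origin.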

## QVQLVESGGGLVQAGGSLRLSCAASGSIFWYNAMGWYRQAPGKERELVAAISVGGGSTSSADSVKGRFTISRDNAKNTVYLQMHSLKPEDTAVYYCNSVRYYRLFAHYGEYGYWGQGTQVTVSS
  polyreactivity (PSR sort gate): high polyreactivity

## QVQLVESGGGLVQAGGSLRLSCAASGSIFWYNAMGWYRQAPGKERELVAGITSGGDTNYADSVKGRFTISRDNAKNTVYLQMNSLKPEDTAVYYCAKRWYGGRRYDYWGQGTQVTVSS
  polyreactivity (PSR sort gate): low polyreactivity

## QVQLVESGGGLVQAGGSLRLSCAASGSIFWYYAMGWYRQAPGKERELVAAISRSGGSTYYADSVKGRFTISRDNAKNTVYLQMNSLKPEDTAVYYCAAGYSSLRRFGVYYWGQGTQVTVSS
  polyreactivity (PSR sort gate): high polyreactivity

## QVQLVESGGGLVQAGGSLRLSCAASGSIFWYYAMGWYRQAPGKERELVAGITRGGSTSYADSVKGRFTISRDNAKKTVYLQMNSLKPEDTAVYYCAKRNPYSRYGYWGQGTQVTVSS
  polyreactivity (PSR sort gate): high polyreactivity

## QVQLVESGGGLVQAGGSLRLSCAASGSIFYAYAMGWYRQAPGKERELVAAISASGGSTYYADSVKGRFTISRDNAKNTVYLQMNSLKPEDTAVYYCAALTYSTYQTAYRRYPKNKYWGQGTQVTVSS
  polyreactivity (PSR sort gate): high polyreactivity

## QVQLVESGGGLVQAGGSLRLSCAASGSIFYAYAMGWYRQAPGKERQLVAAIRSSDSRTYYADSVKGRFTISRDNAKNTVYLQMNSLKPEDTGVYYCDADGSRKVKFDYWGQGTQVTVSS
  polyreactivity (PSR sort gate): high polyreactivity

## QVQLVESGGGLVQAGGSLRLSCAASGSIFYAYAMGWYRQAPRKERELVAAITRSGGSTYYADSVKGRFTISRDNAKNTVYLQMNSLKPEDTAVYYCAAVSRSRRMDFWGQGTQVTVSS
  polyreactivity (PSR sort gate): high polyreactivity

## QVQLVESGGGLVQAGGSLRLSCAASGSIFYAYTMGWYRQAPGKERELVASITKSGGSTYYADSVKGRFTISRDNAKNTVYLQMNSLKPEDTAVYYCAAAFNRYGTTSYWYRHYYWGQGTQVTVSS
  polyreactivity (PSR sort gate): high polyreactivity

## QVQLVESGGGLVQAGGSLRLSCAASGSIFYDKAMGRYRQAPGKEREFVAAISLRTGRTYYADSVKGRFTISRDNAKNTVYLQMNSLKPEDTAVYYCAARGYYGPKYYYWGQGTQVTVSS
  polyreactivity (PSR sort gate): high polyreactivity

## QVQLVESGGGLVQAGGSLRLSCAASGSIFYDNAMGWYRQAPGNERELVAAIDDSDRTNYADSVKGRFTITRDNAKNTVYLQMNSLKPEDTAVYYCARDRWKWHYGYDYWGQGTQVTVSS
  polyreactivity (PSR sort gate): low polyreactivity

## QVQLVESGGGLVQAGGSLRLSCAASGSIFYDYAMGWYRQAPGKEREFVAAITSSGGSTYYADSVKGRFTISRDNAKNTVYLQMNSLKPEDTAVYYCAAEDSDAYFIYGYWGQGTQVTVSS
  polyreactivity (PSR sort gate): low polyreactivity

## QVQLVESGGGLVQAGGSLRLSCAASGSIFYDYVMGWYRQAPGKERELVAAITRGGRTYYADSVKGRFTISRDNAKNTVYLQMNSLKPEDTAVYYCNAGRHQGYDWGQGTQVTVSS
  polyreactivity (PSR sort gate): high polyreactivity

## QVQLVESGGGLVQAGGSLRLSCAASGSIFYENAMGWYRQAPGKERELVAAISWNAGSTYYADSVKGRFTISRDNAKNTVYFQMNSLKPEDTAVYYCATTADGIRYDYWGQGTQVTVSS
  polyreactivity (PSR sort gate): low polyreactivity

## QVQLVESGGGLVQAGGSLRLSCAASGSIFYENMGWYRQSPRKERELVASISWSGTSTYADSVKGRFTISRDNAKNTVYLQMNSLKPEDSAVYYCAAGKNGYTYSRSYSYGYWGQGTQVTVSS
  polyreactivity (PSR sort gate): high polyreactivity

## QVQLVESGGGLVQAGGSLRLSCAASGSIFYEYAMGWYRKAPGKEREFVAAISSSGGSTYYADSVKGRFTISRDNAKNTVYLQMNSLKPEDTAVYYCATQSSVLSWWYDYWGQGTQVTVSS
  polyreactivity (PSR sort gate): low polyreactivity

## QVQLVESGGGLVQAGGSLRLSCAASGSIFYEYDMGWYRQAPGKERELVAALDGSADSTYYADSVKGRFTISRDNAKNTVYLQMNSLKPEDTAVYYCNTRYFRWDTEYGYWGQGTQLTVSS
  polyreactivity (PSR sort gate): low polyreactivity

## QVQLVESGGGLVQAGGSLRLSCAASGSIFYFNGLGWSRQSPGKEREFVAAITWGDGSTYYADSVKGRFTISRDNAKNTVYLQMNSLKPADTAVYYCAAVLLIFKYVPRYDYWGQGSQVTVSS
  polyreactivity (PSR sort gate): low polyreactivity

## QVQLVESGGGLVQAGGSLRLSCAASGSIFYFYAMGWYRQAPGKERELVAAISWSGGSTYYADSVKGRFTISRDNAKNTVYLQMNSLKPEDTAVYYCNAADYWYWENDYWGQGTQVTVSS
  polyreactivity (PSR sort gate): low polyreactivity

## QVQLVESGGGLVQAGGSLRLSCAASGSIFYFYTMGWYRQAPGKERELVASITYSGGRTYYADSVKGRFTISRDNAKNTVYLQMNSLKPEDTAVYYCAVRGYRRYWGQGTQVTVSS
  polyreactivity (PSR sort gate): high polyreactivity

## QVQLVESGGGLVQAGGSLRLSCAASGSIFYGNALGWYRQAPGKEREFVAAISSSGGSTYYADSVKGRFTISRDNAKNTVYLQMNSLKPEDTAVYYCAARGPKHTHSRRYFTEYDYWGQGTQVTVSS
  polyreactivity (PSR sort gate): low polyreactivity

## QVQLVESGGGLVQAGGSLRLSCAASGSIFYGNAMGWYRQAPGKERELVAAIDGTGASTYYADSVKGRFTISRDNAKNTVYLQMNSLKPEDTAVYYCNKALTSKDYPVRTVERDYWGQGTQVTVSS
  polyreactivity (PSR sort gate): low polyreactivity

## QVQLVESGGGLVQAGGSLRLSCAASGSIFYGNAMGWYRQAPGKERELVAAISESGGSTYYADSVKGRFTISRDNAKNTVYFQMNSLKPEDTAVYYCNSEAWGYYWWWGYDYWGHGTQVTVSS
  polyreactivity (PSR sort gate): low polyreactivity

## QVQLVESGGGLVQAGGSLRLSCAASGSIFYGYAMGWYRQAPGKERELVAAISWTGGRTYYADSVKGRFTISRDNAKNTVYLQMNSLKPEDTAVYYCNVRRYSVVSGGYCGQGTQVTVSS
  polyreactivity (PSR sort gate): high polyreactivity

## QVQLVESGGGLVQAGGSLRLSCAASGSIFYGYAMGWYRQSPGKERELVAAISSTGVRSYYADSVKGRFTISRDNAKNTVYLQMNSLKPEDSEVYYCAARRYGPGRYQEDYWGQGSQVTVSS
  polyreactivity (PSR sort gate): high polyreactivity

## QVQLVESGGGLVQAGGSLRLSCAASGSIFYGYTMGWYRQEPGKERELVAAIRKSGGSTNYADSVKGRFTISRDNAKNTVFLQMNSLKPEDTAVYYCAAAYYRGRGYYWGQGTQVTVSS
  polyreactivity (PSR sort gate): high polyreactivity

## QVQLVESGGGLVQAGGSLRLSCAASGSIFYGYVMGCYTQAPGKERELVAAISGGGSTNYADSVKGRFTISRDNAKNTVYLQMNSLKPEDTAVYYCNTEDWAVGSPEVEYEYDYWGQGTQVTVSS
  polyreactivity (PSR sort gate): low polyreactivity

## QVQLVESGGGLVQAGGSLRLSCAASGSIFYHNAMGWYRQAPGKERELVAAITWSGSTTYYADSVKGRFTISRDNAKNTVYLQMNSLKPEDTAVYYCNGGYRHGHYDYWGQGTQVTVSS
  polyreactivity (PSR sort gate): low polyreactivity

## QVQLVESGGGLVQAGGSLRLSCAASGSIFYHNAMGWYRQAPGKERELVARISSRGGSTYYADSVKGRFTISRDNAKNTVYLQMNSLKPEDTAVYYCNNAYRYTSAYDYWGQGTQVTVSS
  polyreactivity (PSR sort gate): high polyreactivity

## QVQLVESGGGLVQAGGSLRLSCAASGSIFYHNAMGWYRRAPGKEREFVAAITGSGGSTYYADSVKGRFTISRDNAKNTVYLQMNSLKPEDTAVYYCASVGYTKWWISWGYDYWGQGTQVTVSS
  polyreactivity (PSR sort gate): low polyreactivity

## QVQLVESGGGLVQAGGSLRLSCAASGSIFYHYAMGLYRQAPGKERELVAAISGSGGSTYYADSVKGRFTISRDNAKNTVYLQMNSLKPEDTAVYYCAADTSRYHYTRYFFDSDYWGQGTQVTVSS
  polyreactivity (PSR sort gate): low polyreactivity

## QVQLVESGGGLVQAGGSLRLSCAASGSIFYHYAMGWYRQAPGKERELVAAISSGGSTSYADSVKGRFTISRDNAKNTVYLQMNSLKPEDTAVYYCNARRIRSRSWKYDYWGQGTQVTVSS
  polyreactivity (PSR sort gate): low polyreactivity

## QVQLVESGGGLVQAGGSLRLSCAASGSIFYHYAMGWYRQAPGKERELVAGITSSGDRTHYADSVKGRFTISRDNAKNSVYLQMNSLKPEDTAVYYCNTATIHGTAYDYWGQGTQVTVSS
  polyreactivity (PSR sort gate): low polyreactivity

## QVQLVESGGGLVQAGGSLRLSCAASGSIFYHYAMGWYRQAPGKERELVAGITSSGDRTHYADSVKGRFTISRDNAKNTVYLQMNSLKPEDTAVYYCNTATIHGTAYDYWGQGTQVTVSS
  polyreactivity (PSR sort gate): low polyreactivity

## QVQLVESGGGLVQAGGSLRLSCAASGSIFYINAMGCYRQAPGKEREMVAAITSDGSTYYADSVKGRFTISRDNAKNTVYLQMNSLNPEDTAVYYCAADLTSDQYMYYWYWFYSWGQGTQVPVSS
  polyreactivity (PSR sort gate): low polyreactivity

## QVQLVESGGGLVQAGGSLRLSCAASGSIFYINAMGWYRQAPGKEREFVARISWRSGSTSYADSVKGRFTISRDNAKNTVYLQMNSLKPEDTAVYYCNAGDFANDNGGRRDQFTWEDEYWGQGTQVTVSS
  polyreactivity (PSR sort gate): low polyreactivity

## QVQLVESGGGLVQAGGSLRLSCAASGSIFYINAMGWYRQAPGKERELVAAIRSGGSTNYADSVKGRFTISRDNAKNTVYLQMNSLKPEDTAVYYCNARSRSYVPYYYWGQGTQVTVSS
  polyreactivity (PSR sort gate): high polyreactivity

## QVQLVESGGGLVQAGGSLRLSCAASGSIFYINDMGWYRQAPGKERELVAAISWSGGTTYYADSVKVRFTISRDNAKNTVYLQMNSLKPEDTAVYYCATDYFFLFPWGLSDYWGQGTQVTVSS
  polyreactivity (PSR sort gate): low polyreactivity

## QVQLVESGGGLVQAGGSLRLSCAASGSIFYINDMGWYRQAPGTERELVAAISWSGGTTYYADSVKGRFTISRDNAKNTVYLQMNSLKPEDTAVYYCATDSFFLFPWGLSDYWGQGTQVTVSS
  polyreactivity (PSR sort gate): low polyreactivity

## QVQLVESGGGLVQAGGSLRLSCAASGSIFYKNAMAWYRQAPGKERELVAAITWSGGSTYYADSVKGRFTISRDNAKNTVYLHMNSLKPEDTAVYYCAAGLYRYRKYGYWGQGTQVTVSS
  polyreactivity (PSR sort gate): low polyreactivity

## QVQLVESGGGLVQAGGSLRLSCAASGSIFYLYAMGWYRQAPGKEREFVAAITSSSGSTHYADSVKGRFTISRDNAKNTVYYQMNSLKPEDTAVYYCAKDYGPWTYDYWGQGTQVTVSS
  polyreactivity (PSR sort gate): low polyreactivity

## QVQLVESGGGLVQAGGSLRLSCAASGSIFYLYAMGWYRQAPGKERELVAGIRYRGGSTYYADSVKGRFTISRDNAKNTVYLQMNSLKPEDTAVYYCAAEYGDGRYWSYDYWGQGTQVTVSS
  polyreactivity (PSR sort gate): high polyreactivity

## QVQLVESGGGLVQAGGSLRLSCAASGSIFYLYAMGWYRQEPGKERELVAAITSGDSTTYADSVKGRFTISRDNAKNTVYLQMNSLIPEDTAVYYCAADWPGLVGYHNSAENDYWGQGTQVTVSS
  polyreactivity (PSR sort gate): low polyreactivity

## QVQLVESGGGLVQAGGSLRLSCAASGSIFYLYTMGWYRQAPGKERELVASITYSGGTYYADSVKGRFTISRDNAKNTVYLQMNSLKPEDTAVYYCNAHIPTNRSYVPEVRGEYDYWGQGTQVTVSS
  polyreactivity (PSR sort gate): low polyreactivity
